We go through four molecules from PMC10470539, “Characterization of a novel aromatic substrate-processing microcompartment in Actinobacteria” (mBio, 2023).

The target of data set [1] is ARO AldDh (ARO 2-aminomuconic-6-semialdehyde dehydrogenase homolog) from Micromonospora rosaria (Micromonospora rosaria). The data set can be described thus: SEC; purified ARO AldDh on analytical Superdex 200 10/300 GL in Buffer E (10 mM Tris-HCl pH 8.0, 0.5 M NaCl, 0.2 mM NAD+, 1 mM DTT, 5% glycerol); oligomer of the enzyme with itself.
For data set [2], the target named is ARO dioxygenase beta subunit (2-aminophenol-1,6-dioxygenase beta subunit) from Micromonospora rosaria, His-tagged (Micromonospora rosaria). The data set can be described thus: crystal structure; ARO dioxygenase, sitting drop vapor diffusion at room temperature; 0.1 M Tris pH 8.0, 0.5 M ammonium, 28% PEG 8000; 1.75 Å, P1 cell.
Data set [3] concerns the target T1, ARO AldDh (2-aminomuconic-6-semialdehyde dehydrogenase homolog) (Micromonospora rosaria, UniProt A0A136PUC7).
T1 construct: gene AWW66_10300; E. coli BL21(DE3), codon-optimized, untagged (pLD69); ammonium sulfate and HIC enriched; primers imply N-term MTGLWSPTL, C-term VDLS
T1 sequence (A0A136PUC7 1-502): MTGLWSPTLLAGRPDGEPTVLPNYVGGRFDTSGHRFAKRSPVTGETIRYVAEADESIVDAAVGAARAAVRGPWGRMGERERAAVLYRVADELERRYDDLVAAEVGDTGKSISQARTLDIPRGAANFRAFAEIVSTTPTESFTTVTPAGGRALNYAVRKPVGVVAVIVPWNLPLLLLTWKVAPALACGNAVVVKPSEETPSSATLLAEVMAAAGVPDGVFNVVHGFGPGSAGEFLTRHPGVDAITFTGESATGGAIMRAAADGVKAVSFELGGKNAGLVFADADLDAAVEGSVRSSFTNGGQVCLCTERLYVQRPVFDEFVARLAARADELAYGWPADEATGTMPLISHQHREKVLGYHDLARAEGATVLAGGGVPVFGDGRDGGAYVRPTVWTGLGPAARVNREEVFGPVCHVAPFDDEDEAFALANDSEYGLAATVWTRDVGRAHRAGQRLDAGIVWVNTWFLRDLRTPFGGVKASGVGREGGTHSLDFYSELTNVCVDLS
Kind of data set: coupled assay, absorption spectra, product 2-aminomuconate at […] nm. It is filed as biochemical. The conditions noted are these: 2-AMS generated in situ from 0.5 µM 2-AP by ARO dioxygenase; 20 µM NAD+, 100 mM potassium phosphate pH 7.5.

Substrate in data set [4]: Nc1ccc(Cl)cc1O
Kind of data set: purified protein. It is filed as biochemical, Micromonospora rosaria. The conditions noted are these: 10 mM sodium phosphate pH 8.0, room temperature, 27 µg enzyme in 1 mL.

Substrate in data set [5]: Oc1ccccc1O
Kind of data set: purified protein. The data set is classed as biochemical, Micromonospora rosaria. The conditions noted are these: 10 mM sodium phosphate pH 8.0, room temperature, 27 µg enzyme in 1 mL.

Substrate in data set [6]: Nc1ccccc1O
The data set can be described thus: purified protein. The data set is classed as biochemical, Micromonospora rosaria. As to conditions: 10 mM sodium phosphate pH 8.0, room temperature, 27 µg enzyme in 1 mL.

The stoichiometry N is a count of units in the complex or per binding partner. As usually defined, the Km is the substrate concentration at which the rate is half of its maximum.

For the molecule “ARO AldDh (ARO 2-aminomuconic-6-semialdehyde dehydrogenase homolog) from Micromonospora rosaria (enzyme)”, the stoichiometry N in data set [1] came to 3.
With “ARO dioxygenase beta subunit (2-aminophenol-1,6-dioxygenase beta subunit) from Micromonospora rosaria, His-tagged (natural protein)”, the stoichiometry N in data set [2] is 2.
Consider `N/C(=C\C=C\C=O)C(=O)O` [2-aminomuconate 6-semialdeyde], for which the “coupled assay, absorption spectra, product 2-aminomuconate at 326 nm” value in data set [3] is on record as “ability to convert 2-aminomuconate 6-semialdeyde (2-AMS) to 2-aminomuconate in vitro”.

B1: ARO dioxygenase (2-aminophenol-1,6-dioxygenase; ARO AmnA and AmnB) (Micromonospora rosaria) (protein)
chain: MSRVFRVPLAPTRGGATTAPRTPAPAPAPTRPGIVAGCLSPHPPHLIYGENPPQNEPRSTGGWETLRWAYERLRARIRDVHKPDVLIVHAPHWITMVGHHVNCVPNPRGLSVEPIFPHLFRYRYDFRTDVELGEAIAEEASGLGLVTRTLRDPRVRVDYATIGALHLANPAWDIPVVSLSANNNPYFYSDASLTEMEVLGEATRLAVEATGRRAVLLASNSLSHLHWHEEPELPEDMEREHPYNNHQYRWDMKLLEAIRRGPTAPLRDLIPEHIEATASETKAGSLTWMLAAMGWPKVAGDVLGYGTIIGTGNAIVEWLPEGSHH
notes: E. coli BL21(DE3) co-expression (codon-optimized; pLD54 alpha, pLD59 beta); beta with C-terminal 6xHis via Gly/Ser linker, tag kept; alpha untagged; 140 kDa dimer of heterodimers; modelled alpha D3-H278, beta T30-G322; iron in beta subunit; primers imply alpha N-term MADRTG, beta N-term MSRVFR; with 2-aminophenol 1,6-dioxygenase alpha subunit
Turning to B1, the Km in the data set “purified protein [4]” stood at 29 µM; in “purified protein [5]”, 14 µM; in the data set “purified protein [6]” it was 70 µM.
